# IntAct's records for PubMed 20010802
# Molecular target: mlp3a_human MAP1LC3A (UniProt Q9H492)
substance,measurement,value
"BCL2/adenovirus E1B 19 kDa protein-interacting protein 3-like (Mus musculus), Q9Z2F7 L38A",effect of a mutation on the interaction,disrupting interaction
